The source of these data is IntAct's records for PubMed 23728178.

To fix the notation:
B1: Complement factor H-related protein 1 (Homo sapiens), Q03591 (parent)
chain: MWLLVSVILISRISSVGGEATFCDFPKINHGILYDEEKYKPFSQVPTGEVFYYSCEYNFVSPSKSFWTRITCTEEGWSPTPKCLRLCFFPFVENGHSESSGQTHLEGDTVQIICNTGYRLQNNENNISCVERGWSTPPKCRSTDTSCVNPPTVQNAHILSRQMSKYPSGERVRYECRSPYEMFGDEEVMCLNGNWTEPPQCKDSTGKCGPPPPIDNGDITSFPLSVYAPASSVEYQCQNLYQLEGNKRITCRNGQWSEPPKCLHPCVISREIMENYNIALRWTAKQKLYLRTGESAEFVCKRGYRLSSRSHTLRTTCWDGKLEYPTCAKR
partner: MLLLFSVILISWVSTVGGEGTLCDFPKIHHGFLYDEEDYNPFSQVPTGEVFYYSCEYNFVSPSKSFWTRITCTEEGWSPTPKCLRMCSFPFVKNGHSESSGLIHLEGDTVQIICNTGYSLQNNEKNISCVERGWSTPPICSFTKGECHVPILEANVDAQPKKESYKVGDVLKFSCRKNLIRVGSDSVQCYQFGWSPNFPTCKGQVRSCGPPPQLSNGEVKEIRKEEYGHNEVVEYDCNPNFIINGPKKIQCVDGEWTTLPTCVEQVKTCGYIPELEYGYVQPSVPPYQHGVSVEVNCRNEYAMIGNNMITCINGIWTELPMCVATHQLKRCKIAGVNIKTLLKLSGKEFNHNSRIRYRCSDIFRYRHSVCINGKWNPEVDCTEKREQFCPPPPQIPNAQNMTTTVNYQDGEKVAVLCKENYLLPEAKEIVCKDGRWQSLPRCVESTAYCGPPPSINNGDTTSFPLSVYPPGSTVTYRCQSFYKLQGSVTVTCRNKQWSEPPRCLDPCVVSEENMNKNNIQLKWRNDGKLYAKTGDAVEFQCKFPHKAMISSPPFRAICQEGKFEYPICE
B2: Complement factor H-related protein 1 (Homo sapiens), Q03591 (parent)
chain: B1 chain

Variants of B1 are the subject of the first assay. The settings on record: with fhr5_human CFHR5, Q9BXR6.
Turning to MWLLVSVILISRISSVGGEATFCDFPKINHGILYDEEKYKPFSQVPTGEVFYYSCEYNFVSPSKSFWTRITCTEEGWSPTPKCLRLCFFPFVENGHSESSGQTHLEGDTVQIICNTGYRLQNNENNISCVERGWSTPPKCRSTDTSCVNPPTVQNAYIVSRQMSKYPSGERVRYQCRSPYEMFGDEEVMCLNGNWTEPPQCKDSTGKCGPPPPIDNGDITSFPLSVYAPASSVEYQCQNLYQLEGNKRITCRNGQWSEPPKCLHPCVISREIMENYNIALRWTAKQKLYLRTGESAEFVCKRGYRLSSRSHTLRTTCWDGKLEYPTCAKR [H157Y;L159V;E175Q], the “effect of a mutation on the interaction” value is on record as “with no effect”.

In a further assay the parent is B2. Conditions: with fhr2_human CFHR2, P36980.
Take MWLLVSVILISRISSVGGEATFCDFPKINHGILYDEEKYKPFSQVPTGEVFYYSCEYNFVSPSKSFWTRITCTEEGWSPTPKCLRLCFFPFVENGHSESSGQTHLEGDTVQIICNTGYRLQNNENNISCVERGWSTPPKCRSTDTSCVNPPTVQNAYIVSRQMSKYPSGERVRYQCRSPYEMFGDEEVMCLNGNWTEPPQCKDSTGKCGPPPPIDNGDITSFPLSVYAPASSVEYQCQNLYQLEGNKRITCRNGQWSEPPKCLHPCVISREIMENYNIALRWTAKQKLYLRTGESAEFVCKRGYRLSSRSHTLRTTCWDGKLEYPTCAKR [H157Y;L159V;E175Q]: the “effect of a mutation on the interaction” value is “with no effect”.
